Measured values from the supplement of paper PMC6755084.

B1: F1*; the commonest letter at each place (parent)
chain: GAGACCGCAACTGAAAAGTTGTTATCACTTGTCGTAAGACACTTTGGATGGGTTGAAGTTCTGCACGTAGAAGCAAAAGGC

Variants of: B1
Test: fraction ligated after 30 min (ligated reads / total reads); higher = more ligase activity
Details: with F1*sub RNA substrate (template-directed ligation), 42 °C
Description: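 Chip-synthesised pool of F1* ligase ribozyme variants (all single and double substitutions, single, double and triple deletions in the catalytic core and GAA bulge, plus designed variants) was transcribed with T7 and reacted as a pool with excess substrate F1*sub for 30 min at 42 C in 50 mM EPPS pH 8.5, 25 mM MgCl2. Ligated and unligated bands were separated by PAGE, barcoded by RT and deep sequenced; fraction ligated = ligated reads / total reads per variant, relative activity = FL / FL of wild type (0.826). Sequences are the DNA template of the ribozyme.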

Row | Variant | fraction ligated
1 | T25A C40G | 0.256
2 | G31C T43C | 0.811
3 | A24G T29C | 0.741
4 | T25G T35A | 0.787
5 | T43A T49A | 0.743
6 | C28A G46T | 0.803
7 | T23G G38A | 0.803
8 | T35A A56C | 0.802
9 | G34T G38C | 0.83
10 | C26T T49C | 0.122
11 | T23A C42A | 0.817
12 | T23C A57T | 0.794
13 | A24G A36T | 0.789
14 | T35A C42T | 0.85
15 | T35A C42A | 0.845
16 | T30G A48C | 0.761
17 | A39G T44A | 0.816
18 | A27C T49A | 0.701
19 | C26T A57C | 0.84
20 | C40G T45G | 0.0145
21 | A24T A36T | 0.794

Row | Variant | fraction ligated
22 | G46T G55C | 0.111
23 | T29G T30C | 0.828
24 | C28T T45G | 0.0616
25 | A27T A39T | 0.783
26 | T30G G31C T32G A39C C40G A41C | 0.85
27 | G31T G55C | 0.176
28 | G31C C33G | 0.794
29 | A24G A57C | 0.632
30 | A36C G46T | 0.778
31 | C28G T43A | 0.807
32 | C28G C40A | 0.791
33 | T30C G55A | 0.81
34 | G34T T35C | 0.81
35 | T43C A57C | 0.733
36 | T23C A39T | 0.803
37 | G38A A56G | 0.783
38 | C42T G55C | 0.797
39 | A24G T32C | 0.369
40 | A24G A41C | 0.034
41 | A36G G50T | 0.751
42 | C40A A48T | 0.0719

Row | Variant | fraction ligated
43 | C26T T43A | 0.827
44 | G38T G46C | 0.787
45 | T23C G34T | 0.804
46 | C26A T45A | 0.366
47 | A27G A36T | 0.826
48 | T35A G46T | 0.783
49 | T25C C26T | 0.813
50 | T43G G46A | 0.808
51 | C26A A48C | 0.366
52 | G34T A57T | 0.81
53 | G34C G38C | 0.818
54 | A39C G55T | 0.802
55 | C26T T29G | 0.816
56 | T29A A57C | 0.818
57 | A27G T29G | 0.806
58 | T29G A41T | 0.833
59 | T25G T32A | 0.324
60 | T32A A56G | 0.808
61 | T35G T44C | 0.854
62 | G31C T45G | 0.0355
63 | A41T A56C | 0.784

Row | Variant | fraction ligated
64 | T30G T45G | 0.46
65 | T23A G50A | 0.477
66 | T23A G50T | 0.699
67 | G46C A48G | 0.191
68 | G46C A48C | 0.621
69 | C26A T35C | 0.807
70 | C26A G34C | 0.805
71 | A36G A57T | 0.878
72 | T23A T25A | 0.652
73 | T44C T49G | 0.772
74 | C28G A41C | 0.751
75 | A37G C40T | 0.854
76 | C40T C42T | 0.853
77 | A39G G47A | 0.795
78 | C28A G55C | 0.19
79 | C26G C40T | 0.678
80 | T23A T49G | 0.827
81 | A24T G46A | 0.553
82 | G46A G47A | 0.804
83 | T25G C26G | 0.0648
